Read-outs that look alike come from different tables or passages of the source.
Key:
Format in all cases: cell-based, human
[1] = tested on: oral (buccal) mucosa cells (TR146)
Method: The protective effect of the recombinant lectin on survival of TR146 cells against 5-FU induced damage was determined using following calculations:
The viability of cells was determined as: % Cell viability=(100−% Cytotoxicity); • where, the percentage cytotoxicity corresponding to each treatment was calculated as: % Cytotoxicity=[(R−X)/R]*100, wherein X=Absorbance of cells treated with 5-FU or radiation damage/TI+5-FU, R=Absorbance of Control cells (Untreated) and Percentage protection was calculated as:
{(Absorbance of TI+5-FU or radiation)−(Absorbance of 5-FU or radiation alone)/(Absorbance of Untreated)−(Absorbance of 5-FU alone)}*100

[2] = tested on: oral (buccal) mucosa cells (TR146); experiment: Annexin positive cell population against radiation damage; conditions: for % Apoptotic cells: Annexin positive
Method: Oral buccal mucosal cells (TR146) were incubated overnight in 5% CO2 incubator at 37° C. for 24 h. […] After 24 h of treatment, cells were exposed to damage (5-FU 5 mM) for 1.25 h for chemotherapy induced inflammation and exposed to gamma radiation (3.5 kGy) using Cobalt 60 for radiation induced inflammation. After the exposure, the anti-apoptotic effect of SEQ ID NO 2 was determined by restoration of mitochondrial membrane depolarization by JC-1 staining and reduction in apoptotic cell populations (Annexin positive and subG0/G1 cells in cell cycle analysis).
To determine the reduction in apoptotic cell populations using annexin-v staining cells were gently harvested into pre-labeled sterile centrifuge tubes and centrifuged at 300×g for 5-7 min. Supernatant were discarded and the pellet was resuspended in 200 μl of fresh culture medium. 100 μl of cell suspension was transferred into pre-labeled sterile centrifuge tubes. 100 μl of Annexin-V reagent was added to each tube and incubated for 30 min at RT in dark. Cells stained for Annexin-V were then transferred into 96-well plates and acquired on flow cytometer (Guava technologies). Percentage of Annexin-V positive cells was calculated as follows:
={[% Annexin positive cells in 5-FU or radiation alone]−[% Annexin positive cells in (TI+5-FU) or (TI+radiation)]/% Annexin positive cells in 5-FU or radiation alone}*100

[3] = tested on: oral (buccal) mucosa cells (TR146); experiment: Sub(G0/G1) cell population (cell cycle) against radiation induced damage; conditions: for % Decrease in Apoptotic cells (with respect to control): Sub G0/G1
Method: To determine the effect of test item on cell cycle, oral buccal mucosal cells (TR146) were incubated overnight in 5% CO2 incubator at 37° C. for 24 h. […] After 24 h of treatment, cells were exposed to chemotherapy (5-FU 10 mM) for 24 h or radiotherapy (Gamma radiation (3.5 kGy) using Cobalt 60) for 2 h.
After incubation, cells were harvested by trypsinization and processed for Cell cycle assay. Accordingly, cells were harvested into prelabeled centrifuge tubes and centrifuged at 450 g for 5 min at room temperature (RT, low brake). The supernatants were removed carefully and discarded. 1 ml of 1× phosphate buffer saline (PBS) was added to the pellet and resuspended gently to make homogenous suspension. Cells were centrifuged at 450 g for 5 min, RT (low brake). The supernatant was carefully removed leaving behind approx. 100 μl of PBS. Cells were resuspended gently yet thoroughly in residual PBS. Ice-cold 70% ethanol (100 μl) was added drop-wise into cells in each tube while vortexing at low speed (fixation step). Cells stored at 4° C. for 24 h were centrifuged at 450 g for 5 min, RT (low brake). The supernatant was carefully removed without touching the pellet and discarded. 1 ml of 1×PBS was added into pellet and resuspended gently. Cells were incubated for 1 minute at RT. Cells were centrifuged at 450 g for 5 min, RT (low brake). The supernatant was removed carefully without touching the pellet, leaving behind approx. 20-50 μl of PBS. 200 μl of cell cycle reagent was added into each tube. Cells were resuspended gently and mixed. Cells were incubated for 30 min at RT in the dark. The stained samples were transferred into 96-well plates and acquired on flow cytometer (Guava technologies). Percentage of cells in Sub (G0/G1) phase were determined based on the concept that cell cycle reagent contains PI stain, which stains DNA of cells in different phases of cell cycle; Sub (G0/G1), G1, S, G2 and M. Cells in Sub (G0/G1) phase correspond to apoptotic cells. Percent inhibition in apoptotic cells is determined by the formula:
=[(% Sub(G0/G1) cells in 5-FU/radiation alone)−(% Sub(G0/G1) cells in TI+5-FU/radiation)/% Sub(G0/G1) cells in 5-FU/radiation alone]*100

NF-kB = experiment: Multiplex analysis, radiotherapy, TR146 cell lysates
Method: Oral buccal mucosal cells (TR146) cells were incubated overnight at 37° C. in 5% CO2 incubator. […] The cells were then stimulated with 5-FU (10 mM) for another 24h for chemotherapy and with gamma radiation (3.5 kGy) using Cobalt 60 for radiotherapy. After 24 h, cell culture supernatants were collected from each well and stored at −20° C. till multiplex analysis. For NF-kB estimations, cell lysates were prepared. Levels of biomarkers were estimated using Magpix® multiplex machine. The cells treated with Amifostine (along with 5-FU or radiation) were considered as positive control (PC). Untreated cells (5-FU or radiation alone treated) were used as negative control (NC).
The percent modulation in each sample was determined as follows:
[{Concentration of biomarkers (pg/ml) in Control cells (5-FU or radiation alone treated)−Concentration of biomarkers (pg/ml) in SEQ ID NO: 2+5-FU or radiation treated cells)}/Concentration of biomarkers (pg/ml) in Control cells (5-FU or radiation alone treated)]*100

[4] = 0.01 μg/ml + Radiation (3.5 kGy)
[5] = 0.1 μg/ml + Radiation (3.5 kGy)

B1: SEQ ID NO 2: recombinant lectin, variant of the S. rolfsii lectin amino acid sequence (reported as Rec-2 in WO 2010/095143) (protein)
chain: TYKITVRVYQTNPDAFFHPVEKTVWKYANGGTWTITDDQHVLTMGGSGTSGTLRFHADNGESFTATFGVHNYKRWCDIVTNLAADETGMVINQQYYSQKNREEARERQLSNYQVKNAKGRNFQIVYTEAEGNDLHANLIIG
For B1, the “% Protection” value [1, 4] was 2.5%, the maximum cytoprotection ([1]; 0.01 μg/ml-25 μg/ml, radiation) was 54.1% and the “% Protection” value [1, 5] was 14.1%. For the same molecule, the “% Protection” value ([1]; 1 μg/ml + Radiation (3.5 kGy)) was 47.4%, the “% Protection” value ([1]; 10 μg/ml + Radiation (3.5 kGy)) was 54.1% and the “% Protection” value ([1]; 25 μg/ml + Radiation (3.5 kGy)) was 8.9%. For the same molecule, the “% Decrease in Apoptotic cells (with respect to radiation control)” value [2, 4] was −4.8%, the “% Apoptotic cells” value [2, 4] was 14.3% and the “% Decrease in Apoptotic cells (with respect to radiation control)” value [2, 5] was −7.3%. For the same molecule, the “% Apoptotic cells” value [2, 5] was 14.7%, the “% Decrease in Apoptotic cells (with respect to radiation control)” value ([2]; 1 μg/ml + Radiation (3.5 kGy)) was 56% and the “% Apoptotic cells” value ([2]; 1 μg/ml + Radiation (3.5 kGy)) was 6%. The “% Decrease in Apoptotic cells (with respect to radiation control)” value ([2]; 10 μg/ml + Radiation (3.5 kGy)) was 62.2%, the “% Apoptotic cells” value ([2]; 10 μg/ml + Radiation (3.5 kGy)) was 5.1% and the “% Decrease in Apoptotic cells (with respect to radiation control)” value ([2]; 10 μg/ml + Radiation (3.5 kGy), listed as SEQ ID NO: 2) was 62.6%. The “% Apoptotic cells (Sub G0/G1)” value [3, 4] was 15.2%, the “% Decrease in Apoptotic cells (with respect to control)” value (“% Decrease … (with respect to control)” below) [3, 4] was 56.9% and the “% Apoptotic cells (Sub G0/G1)” value [3, 5] was 14.3%. The “% Decrease … (with respect to control)” value [3, 5] was 59.5%, the “% Apoptotic cells (Sub G0/G1)” value ([3]; 1 μg/ml + Radiation (3.5 kGy)) was 22.3% and the “% Decrease … (with respect to control)” value ([3]; 1 μg/ml + Radiation (3.5 kGy)) was 36.9%. For the same molecule, the “% Apoptotic cells (Sub G0/G1)” value ([3]; 10 μg/ml + Radiation (3.5 kGy)) was 35.7%, the “% Decrease … (with respect to control)” value ([3]; 10 μg/ml + Radiation (3.5 kGy)) was −1.3% and the “Percentage Inhibition NF-kB” value (NF-kB; [4]) was 11.8%. For the same molecule, the “Percentage Inhibition NF-kB” value (NF-kB; [5]) was 9.9%, the “Percentage Inhibition NF-kB” value (NF-kB; 1 μg/ml + Radiation (3.5 kGy)) was 9.9% and the “Percentage Inhibition NF-kB” value (NF-kB; 10 μg/ml + Radiation (3.5 kGy)) was 4%. The “Percentage Inhibition NF-kB” value (NF-kB; 25 μg/ml + Radiation (3.5 kGy)) was −4%.
